Laboratory results reported in paper PMC8321654, “Heterogeneous nuclear ribonucleoprotein E1 binds polycytosine DNA and monitors genome integrity”.

Target: GST-hnRNP E1 (UniProt Q15365 1-356)
Experiment: EMSA; 25 mM Tris-HCl pH 7.6, 1 mM EDTA, 2% glycerol, 10 mM beta-ME, 50 ug/ml BSA, with or without 1.5 ng denatured E. coli DNA; 20 fmol probe in 50 ul; RT 15 min; 8-10% PAGE in 1x TBE
Details: protein: recombinant; tags: GST; label: 5'-32P

Chain of GST-hnRNP E1 (Q15365 whole entry): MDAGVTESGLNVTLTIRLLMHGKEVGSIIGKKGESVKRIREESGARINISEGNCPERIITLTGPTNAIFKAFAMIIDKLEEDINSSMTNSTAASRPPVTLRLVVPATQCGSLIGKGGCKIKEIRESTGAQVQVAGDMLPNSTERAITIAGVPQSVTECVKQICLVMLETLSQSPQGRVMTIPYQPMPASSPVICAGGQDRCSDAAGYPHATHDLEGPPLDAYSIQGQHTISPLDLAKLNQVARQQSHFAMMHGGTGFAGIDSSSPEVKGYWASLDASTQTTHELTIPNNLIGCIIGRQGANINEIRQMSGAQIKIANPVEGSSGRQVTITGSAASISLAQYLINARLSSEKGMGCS

Q: With AAUUGCUACCCAAUGCCUGGCCCAAGGGCAUUCCCAAAGCUUA (ssRNA) [BAT RNA consensus (43 nt)] as the binder, how does the binding signal read?
A: 11 fold molar excess protein for 50% shift
